T1: human neuropeptide Y2 receptor (human, UniProt P49146 1-381)
T1 construct: whole, on cells; also called hNPY2 receptor; hNPY2-R
T1 sequence (looked up): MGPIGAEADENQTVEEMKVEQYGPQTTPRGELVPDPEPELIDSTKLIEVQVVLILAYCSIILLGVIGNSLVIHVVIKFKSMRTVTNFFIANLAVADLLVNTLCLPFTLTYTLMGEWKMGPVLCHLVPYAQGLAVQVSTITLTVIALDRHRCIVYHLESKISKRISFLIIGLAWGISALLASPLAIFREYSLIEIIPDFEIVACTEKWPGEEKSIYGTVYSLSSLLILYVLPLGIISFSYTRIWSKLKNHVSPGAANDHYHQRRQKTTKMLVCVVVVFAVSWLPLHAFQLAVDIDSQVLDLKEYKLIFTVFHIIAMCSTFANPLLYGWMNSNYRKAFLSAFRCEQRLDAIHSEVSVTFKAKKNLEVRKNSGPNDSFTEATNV

B1: Compound 26 (peptide)
peptide: Isovaleryl-APEK([AEEA-AEEA-γGlu-C18 diacid])PPEDATPEELQRYYVSLRHYYNWLTRQRY-NH2
SMILES: CC(C)CC(=O)N[C@@H](C)C(=O)N1CCC[C@H]1C(=O)N[C@@H](CCC(=O)O)C(=O)N[C@@H](CCCCNC(=O)COCCOCCNC(=O)COCCOCCNC(=O)CC[C@H](NC(=O)CCCCCCCCCCCCCCCCC(=O)O)C(=O)O)C(=O)N1CCC[C@H]1C(=O)N1CCC[C@H]1C(=O)N[C@@H](CCC(=O)O)C(=O)N[C@@H](CC(=O)O)C(=O)N[C@@H](C)C(=O)N[C@H](C(=O)N1CCC[C@H]1C(=O)N[C@@H](CCC(=O)O)C(=O)N[C@@H](CCC(=O)O)C(=O)N[C@@H](CC(C)C)C(=O)N[C@@H](CCC(N)=O)C(=O)N[C@@H](CCCNC(=N)N)C(=O)N[C@@H](Cc1ccc(O)cc1)C(=O)N[C@@H](Cc1ccc(O)cc1)C(=O)N[C@H](C(=O)N[C@@H](CO)C(=O)N[C@@H](CC(C)C)C(=O)N[C@@H](CCCNC(=N)N)C(=O)N[C@@H](Cc1c[nH]cn1)C(=O)N[C@@H](Cc1ccc(O)cc1)C(=O)N[C@@H](Cc1ccc(O)cc1)C(=O)N[C@@H](CC(N)=O)C(=O)N[C@@H](Cc1c[nH]c2ccccc12)C(=O)N[C@@H](CC(C)C)C(=O)N[C@H](C(=O)N[C@@H](CCCNC(=N)N)C(=O)N[C@@H](CCC(N)=O)C(=O)N[C@@H](CCCNC(=N)N)C(=O)N[C@@H](Cc1ccc(O)cc1)C(N)=O)[C@@H](C)O)C(C)C)[C@@H](C)O
B2: Compound 33 (peptide)
peptide: Isovaleryl-APEK([AEEA-AEEA-γGlu-C18 diacid])PEEPASPEELQRYYVELRHYYNWLTRQRY-NH2
SMILES: CC(C)CC(=O)N[C@@H](C)C(=O)N1CCC[C@H]1C(=O)N[C@@H](CCC(=O)O)C(=O)N[C@@H](CCCCNC(=O)COCCOCCNC(=O)COCCOCCNC(=O)CC[C@H](NC(=O)CCCCCCCCCCCCCCCCC(=O)O)C(=O)O)C(=O)N1CCC[C@H]1C(=O)N[C@@H](CCC(=O)O)C(=O)N[C@@H](CCC(=O)O)C(=O)N1CCC[C@H]1C(=O)N[C@@H](C)C(=O)N[C@@H](CO)C(=O)N1CCC[C@H]1C(=O)N[C@@H](CCC(=O)O)C(=O)N[C@@H](CCC(=O)O)C(=O)N[C@@H](CC(C)C)C(=O)N[C@@H](CCC(N)=O)C(=O)N[C@@H](CCCNC(=N)N)C(=O)N[C@@H](Cc1ccc(O)cc1)C(=O)N[C@@H](Cc1ccc(O)cc1)C(=O)N[C@H](C(=O)N[C@@H](CCC(=O)O)C(=O)N[C@@H](CC(C)C)C(=O)N[C@@H](CCCNC(=N)N)C(=O)N[C@@H](Cc1c[nH]cn1)C(=O)N[C@@H](Cc1ccc(O)cc1)C(=O)N[C@@H](Cc1ccc(O)cc1)C(=O)N[C@@H](CC(N)=O)C(=O)N[C@@H](Cc1c[nH]c2ccccc12)C(=O)N[C@@H](CC(C)C)C(=O)N[C@H](C(=O)N[C@@H](CCCNC(=N)N)C(=O)N[C@@H](CCC(N)=O)C(=O)N[C@@H](CCCNC(=N)N)C(=O)N[C@@H](Cc1ccc(O)cc1)C(N)=O)[C@@H](C)O)C(C)C
B3: Compound 28 (peptide)
peptide: Isovaleryl-APEK([AEEA-AEEA-γGlu-C18 diacid])PEEDTSPEELQRYYVELRHYYNWLTRQRY-NH2
SMILES: CC(C)CC(=O)N[C@@H](C)C(=O)N1CCC[C@H]1C(=O)N[C@@H](CCC(=O)O)C(=O)N[C@@H](CCCCNC(=O)COCCOCCNC(=O)COCCOCCNC(=O)CC[C@H](NC(=O)CCCCCCCCCCCCCCCCC(=O)O)C(=O)O)C(=O)N1CCC[C@H]1C(=O)N[C@@H](CCC(=O)O)C(=O)N[C@@H](CCC(=O)O)C(=O)N[C@@H](CC(=O)O)C(=O)N[C@H](C(=O)N[C@@H](CO)C(=O)N1CCC[C@H]1C(=O)N[C@@H](CCC(=O)O)C(=O)N[C@@H](CCC(=O)O)C(=O)N[C@@H](CC(C)C)C(=O)N[C@@H](CCC(N)=O)C(=O)N[C@@H](CCCNC(=N)N)C(=O)N[C@@H](Cc1ccc(O)cc1)C(=O)N[C@@H](Cc1ccc(O)cc1)C(=O)N[C@H](C(=O)N[C@@H](CCC(=O)O)C(=O)N[C@@H](CC(C)C)C(=O)N[C@@H](CCCNC(=N)N)C(=O)N[C@@H](Cc1c[nH]cn1)C(=O)N[C@@H](Cc1ccc(O)cc1)C(=O)N[C@@H](Cc1ccc(O)cc1)C(=O)N[C@@H](CC(N)=O)C(=O)N[C@@H](Cc1c[nH]c2ccccc12)C(=O)N[C@@H](CC(C)C)C(=O)N[C@H](C(=O)N[C@@H](CCCNC(=N)N)C(=O)N[C@@H](CCC(N)=O)C(=O)N[C@@H](CCCNC(=N)N)C(=O)N[C@@H](Cc1ccc(O)cc1)C(N)=O)[C@@H](C)O)C(C)C)[C@@H](C)O
B4: Compound 27 (peptide)
peptide: Isovaleryl-APEK([AEEA-AEEA-γGlu-C18 diacid])PPEDAEPEELQRYYVSLRHYYNWLTRQRY-NH2
SMILES: CC(C)CC(=O)N[C@@H](C)C(=O)N1CCC[C@H]1C(=O)N[C@@H](CCC(=O)O)C(=O)N[C@@H](CCCCNC(=O)COCCOCCNC(=O)COCCOCCNC(=O)CC[C@H](NC(=O)CCCCCCCCCCCCCCCCC(=O)O)C(=O)O)C(=O)N1CCC[C@H]1C(=O)N1CCC[C@H]1C(=O)N[C@@H](CCC(=O)O)C(=O)N[C@@H](CC(=O)O)C(=O)N[C@@H](C)C(=O)N[C@@H](CCC(=O)O)C(=O)N1CCC[C@H]1C(=O)N[C@@H](CCC(=O)O)C(=O)N[C@@H](CCC(=O)O)C(=O)N[C@@H](CC(C)C)C(=O)N[C@@H](CCC(N)=O)C(=O)N[C@@H](CCCNC(=N)N)C(=O)N[C@@H](Cc1ccc(O)cc1)C(=O)N[C@@H](Cc1ccc(O)cc1)C(=O)N[C@H](C(=O)N[C@@H](CO)C(=O)N[C@@H](CC(C)C)C(=O)N[C@@H](CCCNC(=N)N)C(=O)N[C@@H](Cc1c[nH]cn1)C(=O)N[C@@H](Cc1ccc(O)cc1)C(=O)N[C@@H](Cc1ccc(O)cc1)C(=O)N[C@@H](CC(N)=O)C(=O)N[C@@H](Cc1c[nH]c2ccccc12)C(=O)N[C@@H](CC(C)C)C(=O)N[C@H](C(=O)N[C@@H](CCCNC(=N)N)C(=O)N[C@@H](CCC(N)=O)C(=O)N[C@@H](CCCNC(=N)N)C(=O)N[C@@H](Cc1ccc(O)cc1)C(N)=O)[C@@H](C)O)C(C)C
B5: Compound 32 (peptide)
peptide: Isovaleryl-APEK([AEEA-AEEA-γGlu-C18 diacid])PEEDTSPEELQRYEVSLRHYYNWLTRQRY-NH2
SMILES: CC(C)CC(=O)N[C@@H](C)C(=O)N1CCC[C@H]1C(=O)N[C@@H](CCC(=O)O)C(=O)N[C@@H](CCCCNC(=O)COCCOCCNC(=O)COCCOCCNC(=O)CC[C@H](NC(=O)CCCCCCCCCCCCCCCCC(=O)O)C(=O)O)C(=O)N1CCC[C@H]1C(=O)N[C@@H](CCC(=O)O)C(=O)N[C@@H](CCC(=O)O)C(=O)N[C@@H](CC(=O)O)C(=O)N[C@H](C(=O)N[C@@H](CO)C(=O)N1CCC[C@H]1C(=O)N[C@@H](CCC(=O)O)C(=O)N[C@@H](CCC(=O)O)C(=O)N[C@@H](CC(C)C)C(=O)N[C@@H](CCC(N)=O)C(=O)N[C@@H](CCCNC(=N)N)C(=O)N[C@@H](Cc1ccc(O)cc1)C(=O)N[C@@H](CCC(=O)O)C(=O)N[C@H](C(=O)N[C@@H](CO)C(=O)N[C@@H](CC(C)C)C(=O)N[C@@H](CCCNC(=N)N)C(=O)N[C@@H](Cc1c[nH]cn1)C(=O)N[C@@H](Cc1ccc(O)cc1)C(=O)N[C@@H](Cc1ccc(O)cc1)C(=O)N[C@@H](CC(N)=O)C(=O)N[C@@H](Cc1c[nH]c2ccccc12)C(=O)N[C@@H](CC(C)C)C(=O)N[C@H](C(=O)N[C@@H](CCCNC(=N)N)C(=O)N[C@@H](CCC(N)=O)C(=O)N[C@@H](CCCNC(=N)N)C(=O)N[C@@H](Cc1ccc(O)cc1)C(N)=O)[C@@H](C)O)C(C)C)[C@@H](C)O

*1 amine or outer side, *2 acyl side, *3 side chain or, on linkers, in order; H or OH if unused. Side-chain parts run from the residue outwards. The star is where a group is joined. C18 diacid = O=C(O)CCCCCCCCCCCCCCCCC(=O)*; γGlu = O=C(O)[C@H](CCC(=O)[*:2])N[*:1]; Isovaleryl = CC(C)CC(=O)*; AEEA = NCCOCCOCC(=O)O

The experiment has as its target T1, human neuropeptide Y2 receptor. Description: radioligand competition (125I-PYY(1-36)), hNPY2R membranes. Put shortly:
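Commercial human Y2 receptor membranes (0.5 μg protein/well) were incubated with peptide for 2 h at room temperature in 50 mM HEPES, 5 mM MgCl₂, 1 mM CaCl₂, pH 7.4, with 0.2% ovalbumin. Bound radioligand was separated on PEI-soaked GF/C filters and counted by scintillation, and IC₅₀ came from nonlinear sigmoidal regression.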
A word on the Ki: it is a measure of affinity in units of concentration, obtained from inhibition or displacement. A low value points to tighter binding. Molecule B1 yielded a Ki of 0.77 nM. To B2 belongs 0.45 nM; to B3, 6.03 nM. In the case of B4, the inhibition constant (Ki) came out at 0.96 nM.

Consider B5, for which the Ki turned out to be 4.84 nM.

These data come from US20210139548A1 (published 2021).
